From paper PMC11040377, “Lymphocyte‐Activation Gene 3 Facilitates Pathological Tau Neuron‐to‐Neuron Transmission” (Advanced Science, 2024)

Columns and labels:
[1] = biological target: Tau oligomers (globular, 30% sucrose fraction), biotin-labelled (human, biotin); assay: cell surface binding assay (streptavidin-alkaline phosphatase staining); SH-SY5Y cells transfected with Lag3 or its deletion mutants; biotin-labelled ligand at different concentrations (monomer equivalent) in DMEM with 10% FBS, 2 h at RT; washed, fixed, bound biotin detected with streptavidin-AP and BCIP/NBT; intensity by ImageJ, KD by GraphPad Prism; conditions: one partner purified
amyloid-β (Aβ) PFF = assay: as above; conditions: one partner purified
[2] = biological target: T1, Tau-biotin PFF (AD-Tau-induced Tau preformed fibrils, biotin-labelled) (human, UniProt P10636-8 1-441, biotin (Sulfo-NHS-LC-Biotin)); assay: ELISA; Tau-biotin PFF and human recombinant LAG3; format not described in the text shown; conditions: both partners purified
T1 construct: Tau, human, WT isoform T40 (2N4R), 441 amino acid residues; Fibrillar assembly of many Tau chains; concentrations are monomer equivalents; also called Tau PFF; AD-Tau-induced Tau PFF-biotin; source: E. coli BL21(DE3), purified (HiTrap SP HP); fibrillised with AD-Tau seeds from AD brains, sonicated
T1 sequence (P10636 other isoform, or with tags, fused parts or gaps): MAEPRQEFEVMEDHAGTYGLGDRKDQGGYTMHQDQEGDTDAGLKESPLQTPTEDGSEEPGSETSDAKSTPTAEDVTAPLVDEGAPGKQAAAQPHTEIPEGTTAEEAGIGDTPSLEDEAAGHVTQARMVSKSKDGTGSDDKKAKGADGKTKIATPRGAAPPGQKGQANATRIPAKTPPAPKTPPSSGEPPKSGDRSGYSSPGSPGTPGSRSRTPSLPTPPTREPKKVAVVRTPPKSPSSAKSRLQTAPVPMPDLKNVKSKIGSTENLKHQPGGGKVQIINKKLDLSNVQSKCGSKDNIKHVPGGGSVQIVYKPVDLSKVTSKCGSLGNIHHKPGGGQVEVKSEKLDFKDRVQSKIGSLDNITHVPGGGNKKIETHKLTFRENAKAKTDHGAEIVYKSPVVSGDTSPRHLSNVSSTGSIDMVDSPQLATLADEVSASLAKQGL

B1: Lag3 (lymphocyte-activation gene 3), on transfected SH-SY5Y cells (receptor, UniProt Q61790 24-521, looked up)
chain: GPGKELPVVWAQEGAPVHLPCSLKSPNLDPNFLRRGGVIWQHQPDSGQPTPIPALDLHQGMPSPRQPAPGRYTVLSVAPGGLRSGRQPLHPHVQLEERGLQRGDFSLWLRPALRTDAGEYHATVRLPNRALSCSLRLRVGQASMIASPSGVLKLSDWVLLNCSFSRPDRPVSVHWFQGQNRVPVYNSPRHFLAETFLLLPQVSPLDSGTWGCVLTYRDGFNVSITYNLKVLGLEPVAPLTVYAAEGSRVELPCHLPPGVGTPSLLIAKWTPPGGGPELPVAGKSGNFTLHLEAVGLAQAGTYTCSIHLQGQQLNATVTLAVITVTPKSFGLPGSRGKLLCEVTPASGKERFVWRPLNNLSRSCPGPVLEIQEARLLAERWQCQLYEGQRLLGATVYAAESSSGAHSARRISGDLKGGHLVLVLILGALSLFLLVAGAFGFHWWRKQLLLRRFSALEHGIQPFPAQRKIEELERELETEMGQEPEPEPEPQLEPEPRQL
notes: also called FL; Lag3-expressing SH-SY5Y cells; source: SH-SY5Y cells, transiently transfected (Lipofectamine 2000), on cells
- Kd [1]: 1300 nM
- Kd (amyloid-β (Aβ) PFF): 310 nM

B2: human recombinant LAG3 (receptor)
chain: LQPGAEVPVVWAQEGAPAQLPCSPTIPLQDLSLLRRAGVTWQHQPDSGPPAAAPGHPLAPGPHPAAPSSWGPRPRRYTVLSVGPGGLRSGRLPLQPRVQLDERGRQRGDFSLWLRPARRADAGEYRAAVHLRDRALSCRLRLRLGQASMTASPPGSLRASDWVILNCSFSRPDRPASVHWFRNRGQGRVPVRESPHHHLAESFLFLPQVSPMDSGPWGCILTYRDGFNVSIMYNLTVLGLEPPTPLTVYAGAGSRVGLPCRLPAGVGTRSFLTAKWTPPGGGPDLLVTGDNGDFTLRLEDVSQAQAGTYTCHIHLQEQQLNATVTLAIITVTPKSFGSPGSLGKLLCEVTPVSGQERFVWSSLDTPSQRSFSGPWLEAQEAQLLSQPWQCQLYQGERLLGAAVYFTELSSPGAQRSGRAPGALPAGHL
- Kd [2]: 3 nM
